Columns and labels:
[1] = molecular target: N-terminally 6×His-tagged FilP expressed in E. coli (Streptomyces coelicolor); experiment: turbidity (light scattering at 350 nm); His-N-FilP at 20-200 μg/ml dialysed against Tris assembly buffer; 96-well plate
[2] = molecular target: N-terminally 6×His-tagged FilP expressed in E. coli (Streptomyces coelicolor); experiment: ultracentrifugation sedimentation assay; His-N-FilP 200 μg/ml dialysed against Tris pH 8.8; 135,000-300,000g, 15-30 min, 25°C
[3] = molecular target: N-terminally 6×His-tagged FilP expressed in E. coli (Streptomyces coelicolor); experiment: ultracentrifugation sedimentation assay; His-N-FilP 200 μg/ml dialysed against 50 mM Tris-HCl pH 6.8 with 1 M NaCl; 135,000-300,000g, 15-30 min, 25°C
[4] = molecular target: N-terminally 6×His-tagged FilP expressed in E. coli (Streptomyces coelicolor); experiment: as above; remark: listed apart in the source
[5] = molecular target: N-terminally 6×His-tagged FilP expressed in E. coli (Streptomyces coelicolor); experiment: ultracentrifugation sedimentation assay; His-N-FilP 200 μg/ml dialysed against 50 mM Tris-HCl pH 6.8 with 0.2 M KCl; 135,000-300,000g, 15-30 min, 25°C
[6] = molecular target: N-terminally 6×His-tagged FilP expressed in E. coli (Streptomyces coelicolor); experiment: ultracentrifugation sedimentation assay; His-N-FilP 200 μg/ml dialysed against 50 mM Tris-HCl pH 6.8 with 5 mM MgCl2; 135,000-300,000g, 15-30 min, 25°C
[7] = molecular target: N-terminally 6×His-tagged FilP expressed in E. coli (Streptomyces coelicolor); experiment: ultracentrifugation sedimentation assay; His-N-FilP 200 μg/ml dialysed against 50 mM Tris-HCl pH 6.8 with 0.2 M KCl and 1 M NaCl; 135,000-300,000g, 15-30 min, 25°C

critical concentration for filamentation [1]: 33 µg/mL
percent of total FilP soluble (in the supernatant after ultracentrifugation) [2]: 32%
percent of added protein recovered in the supernatant after ultracentrifugation [3]: 35%
percent of added protein recovered in the supernatant after ultracentrifugation [4]: 40%
percent of added protein recovered in the supernatant after ultracentrifugation [5]: 25%
percent of added protein recovered in the supernatant after ultracentrifugation [6]: 11%
percent of added protein recovered in the supernatant after ultracentrifugation [7]: 63%
Substance: N-terminally 6×His-tagged FilP expressed in E. coli (natural protein)

From PMC6599971
